This data set concerns the molecule itself. The data set can be described thus: SEC; analytical gel filtration, Superdex 75 10/300 GL, 10 mM Tris-HCl pH 8.5, 100 mM NaCl, 1 mM DTT; calibrated with BSA (66 kDa) and rabbit IgG (150 kDa). In general terms: Size exclusion chromatography separates by hydrodynamic size, large species first.

Consider three proteins from paper PMC3823801, “Structure Reveals Regulatory Mechanisms of a MaoC-Like Hydratase from Phytophthora capsici Involved in Biosynthesis of Polyhydroxyalkanoates (PHAs)” (PLoS ONE, 2013).

The stoichiometry N is a count of units in the complex or per binding partner.

B1: MaoC Del63-88 (enzyme)
chain: MSVNVDKILNSPEATYTATYNQRDLLMYAVGIGESDLQFTYEFDEKFSAFPLYPVCLPFKGQILHGEQSVEILRPLDPSGGTLTGKTKVISFYDKGKGTLMETQTQFEDGNGPVAKLISGSFIRGLTGYEGKGRKLPARVQIPKRQPDFNDEFKTSPHQAQVYRLSGDYNSLHIDPEIAKSVGFKQPILHGLCSMGVASRALFKQFCGGDVARFKSIRVRFSSPCFPGETIQTRMWQEGSGKVLFQAVVKERGAVIVDGGEFVYTQDASARL
notes: MaoC-like hydratase, Phytophthora capsici strain SD33, full length with residues 63-88 deleted; Made from the wild-type plasmid (pET28-MaoC) with the MutanBEST kit; source: E. coli BL21 (DE3) pLysS, purified as described for the wild-type protein
Consider B1, for which the binding result was “binds”.

B2: MaoC-like hydratase from Phytophthora capsici (enzyme)
chain: MSVNVDKILNSPEATYTATYNQRDLLMYAVGIGESDLQFTYEFDEKFSAFPLYPVCLPFKGQSQDVVPFPPETISAAPDGMPSFNPAMILHGEQSVEILRPLDPSGGTLTGKTKVISFYDKGKGTLMETQTQFEDGNGPVAKLISGSFIRGLTGYEGKGRKLPARVQIPKRQPDFNDEFKTSPHQAQVYRLSGDYNSLHIDPEIAKSVGFKQPILHGLCSMGVASRALFKQFCGGDVARFKSIRVRFSSPCFPGETIQTRMWQEGSGKVLFQAVVKERGAVIVDGGEFVYTQDASARL
notes: MaoC-like hydratase, Phytophthora capsici strain SD33, full length (Met-1 to Leu-298); Cloned BamHI/EcoRI into pET28a; no step that removes the tag is described, and the purified enzymes were detected with anti-His antibody on western blots; also called wild type MaoC; native MaoC; source: E. coli BL21 (DE3) pLysS, purified (Ni-NTA, Superdex-75 gel filtration)
In the case of B2, the “stoichiometry N” value was 2.

B3: MaoC Del63-71 (enzyme)
chain: MSVNVDKILNSPEATYTATYNQRDLLMYAVGIGESDLQFTYEFDEKFSAFPLYPVCLPFKGQETISAAPDGMPSFNPAMILHGEQSVEILRPLDPSGGTLTGKTKVISFYDKGKGTLMETQTQFEDGNGPVAKLISGSFIRGLTGYEGKGRKLPARVQIPKRQPDFNDEFKTSPHQAQVYRLSGDYNSLHIDPEIAKSVGFKQPILHGLCSMGVASRALFKQFCGGDVARFKSIRVRFSSPCFPGETIQTRMWQEGSGKVLFQAVVKERGAVIVDGGEFVYTQDASARL
notes: MaoC-like hydratase, Phytophthora capsici strain SD33, full length with residues 63-71 deleted; Made from the wild-type plasmid (pET28-MaoC) with the MutanBEST kit; source: E. coli BL21 (DE3) pLysS, purified as described for the wild-type protein
Turning to B3, the binding result is given as “binds”.
